Measured values as given in publication PMC11040377 (2024).

Target: Tau-biotin monomer (human, UniProt P10636-8 1-441, biotin (Sulfo-NHS-LC-Biotin))

B1: Lag3 (lymphocyte-activation gene 3), on transfected SH-SY5Y cells (receptor)
chain: GPGKELPVVWAQEGAPVHLPCSLKSPNLDPNFLRRGGVIWQHQPDSGQPTPIPALDLHQGMPSPRQPAPGRYTVLSVAPGGLRSGRQPLHPHVQLEERGLQRGDFSLWLRPALRTDAGEYHATVRLPNRALSCSLRLRVGQASMIASPSGVLKLSDWVLLNCSFSRPDRPVSVHWFQGQNRVPVYNSPRHFLAETFLLLPQVSPLDSGTWGCVLTYRDGFNVSITYNLKVLGLEPVAPLTVYAAEGSRVELPCHLPPGVGTPSLLIAKWTPPGGGPELPVAGKSGNFTLHLEAVGLAQAGTYTCSIHLQGQQLNATVTLAVITVTPKSFGLPGSRGKLLCEVTPASGKERFVWRPLNNLSRSCPGPVLEIQEARLLAERWQCQLYEGQRLLGATVYAAESSSGAHSARRISGDLKGGHLVLVLILGALSLFLLVAGAFGFHWWRKQLLLRRFSALEHGIQPFPAQRKIEELERELETEMGQEPEPEPEPQLEPEPRQL
Kd: > 2000 nM
